# CN111234026A (BEIJING CHEST HOSPITAL CAPITAL MEDICAL UNIV; BEIJING …, dated 2020)
# T1: 结核分枝杆菌特异性重组蛋白38KD (Mycobacterium tuberculosis, UniProt P9WGU1 24-374)
# T1 sequence (looked up): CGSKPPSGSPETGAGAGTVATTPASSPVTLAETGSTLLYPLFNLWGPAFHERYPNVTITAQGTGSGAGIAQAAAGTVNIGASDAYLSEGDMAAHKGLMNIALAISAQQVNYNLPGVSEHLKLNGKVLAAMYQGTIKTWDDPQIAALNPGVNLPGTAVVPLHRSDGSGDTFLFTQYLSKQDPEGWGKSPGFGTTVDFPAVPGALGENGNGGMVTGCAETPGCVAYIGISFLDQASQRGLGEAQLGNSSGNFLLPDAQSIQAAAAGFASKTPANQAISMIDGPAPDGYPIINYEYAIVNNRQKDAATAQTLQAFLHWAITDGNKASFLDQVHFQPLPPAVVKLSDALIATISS
# T2: 结核分枝杆菌特异性重组蛋白MPT32 (Mycobacterium tuberculosis, UniProt P9WIR7 40-325)
# T2 sequence (looked up): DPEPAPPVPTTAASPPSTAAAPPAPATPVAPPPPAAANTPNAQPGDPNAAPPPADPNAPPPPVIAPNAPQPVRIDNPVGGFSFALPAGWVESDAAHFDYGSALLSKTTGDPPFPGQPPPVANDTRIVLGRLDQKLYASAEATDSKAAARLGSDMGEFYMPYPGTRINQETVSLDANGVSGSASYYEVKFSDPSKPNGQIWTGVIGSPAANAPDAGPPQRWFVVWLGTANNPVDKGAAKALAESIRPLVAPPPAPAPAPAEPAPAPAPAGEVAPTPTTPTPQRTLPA
# T3: 结核分枝杆菌特异性重组蛋白MPT64 (Mycobacterium tuberculosis, UniProt P9WIN9 24-228)
# T3 sequence (looked up): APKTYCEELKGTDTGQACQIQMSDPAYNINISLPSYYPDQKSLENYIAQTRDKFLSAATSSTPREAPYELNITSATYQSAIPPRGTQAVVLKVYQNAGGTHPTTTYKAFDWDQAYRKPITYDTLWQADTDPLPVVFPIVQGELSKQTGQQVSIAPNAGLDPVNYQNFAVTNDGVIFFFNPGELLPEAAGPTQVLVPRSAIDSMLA
# T4: 结核分枝杆菌特异性重组蛋白CFP10 (Mycobacterium tuberculosis, UniProt P9WNK5 1-100)
# T4 sequence (looked up): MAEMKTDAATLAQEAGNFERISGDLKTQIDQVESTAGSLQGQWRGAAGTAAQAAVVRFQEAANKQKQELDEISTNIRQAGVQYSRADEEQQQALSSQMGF
# T5: 结核分枝杆菌特异性重组蛋白EspC (Mycobacterium tuberculosis, UniProt P9WJD7 1-103)
# T5 sequence (looked up): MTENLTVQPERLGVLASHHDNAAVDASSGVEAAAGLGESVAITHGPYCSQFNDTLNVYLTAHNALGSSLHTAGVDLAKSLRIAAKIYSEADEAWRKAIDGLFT
# How the values were obtained:
# Assay in all cases: indirect ELISA, recombinant protein coated on the plate
# 结核分枝杆菌特异性重组蛋白38KD = molecular target: T1, 结核分枝杆菌特异性重组蛋白38KD
# 结核分枝杆菌特异性重组蛋白MPT32 = molecular target: T2, 结核分枝杆菌特异性重组蛋白MPT32
# 结核分枝杆菌特异性重组蛋白MPT64 = molecular target: T3, 结核分枝杆菌特异性重组蛋白MPT64
# 结核分枝杆菌特异性重组蛋白Mtb81 = 结核分枝杆菌特异性重组蛋白Mtb81 (Mycobacterium tuberculosis, UniProt P9WK17 1-741)
# Sequence of 结核分枝杆菌特异性重组蛋白Mtb81 (P9WK17 whole entry): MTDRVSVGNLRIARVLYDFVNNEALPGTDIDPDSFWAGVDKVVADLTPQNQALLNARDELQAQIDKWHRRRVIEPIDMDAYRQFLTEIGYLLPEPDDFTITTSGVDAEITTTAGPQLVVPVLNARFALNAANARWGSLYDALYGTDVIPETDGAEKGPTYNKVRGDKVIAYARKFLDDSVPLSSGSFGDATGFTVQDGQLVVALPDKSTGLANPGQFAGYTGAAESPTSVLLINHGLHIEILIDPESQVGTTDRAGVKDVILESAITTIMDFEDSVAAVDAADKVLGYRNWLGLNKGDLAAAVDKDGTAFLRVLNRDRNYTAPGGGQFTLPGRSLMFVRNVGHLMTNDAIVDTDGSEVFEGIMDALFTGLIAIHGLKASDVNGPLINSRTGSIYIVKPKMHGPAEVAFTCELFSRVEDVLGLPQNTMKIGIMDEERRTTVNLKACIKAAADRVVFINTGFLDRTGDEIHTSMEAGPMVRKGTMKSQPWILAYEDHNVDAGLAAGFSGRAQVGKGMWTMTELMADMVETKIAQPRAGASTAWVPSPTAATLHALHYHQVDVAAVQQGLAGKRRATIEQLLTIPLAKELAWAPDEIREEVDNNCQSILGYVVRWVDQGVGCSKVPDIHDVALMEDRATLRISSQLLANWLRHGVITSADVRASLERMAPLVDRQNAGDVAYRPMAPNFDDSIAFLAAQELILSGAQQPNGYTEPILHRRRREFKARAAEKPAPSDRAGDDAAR
# 结核分枝杆菌特异性重组蛋白CFP10 = molecular target: T4, 结核分枝杆菌特异性重组蛋白CFP10
# 结核分枝杆菌特异性重组蛋白EspC = molecular target: T5, 结核分枝杆菌特异性重组蛋白EspC
Binder,binding result (结核分枝杆菌特异性重组蛋白38KD),binding result (结核分枝杆菌特异性重组蛋白MPT32),binding result (结核分枝杆菌特异性重组蛋白MPT64),binding result (结核分枝杆菌特异性重组蛋白Mtb81),binding result (结核分枝杆菌特异性重组蛋白CFP10),binding result (结核分枝杆菌特异性重组蛋白EspC)
"BJRbL76 (antibody, V domains shown, also called 兔抗LAM单克隆抗体BJRbL76; LAM抗体) VH: QSVEESGGRLVTPGTPLTLTCTVSGFSLSTYAITWVRQAPGKGLEWIGYIWGGGNTDYASWAKGRFTISKTSTTVDLKITSPTIEDTATYFCGRNDLGYGSDIWGPGTLVTVSS VL: DVVMTQTPSSKSVPVGDTVTINCQASQSVWGNKWLSWYQQKPGQPPKLLIYQASKLASGVPSRFSGSGSGTQFTLTISDVVCDDAATYYCGGHGTGNNDNPLGGGTMVEIKG",no binding (tested: protein coated at 5μg/ml),no binding (tested: protein coated at 5μg/ml),no binding (tested: protein coated at 5μg/ml),no binding (tested: protein coated at 5μg/ml),no binding (tested: protein coated at 5μg/ml),no binding (tested: protein coated at 5μg/ml)
"BJRbL20 (antibody, V domains shown, also called 兔抗LAM单克隆抗体BJRbL20; LAM抗体) VH: QSVEESGGRLVTPGGSLTLTCTVSGIDLSSYDMGWVRQAPGKGLEWIGNIWSNGFTDYASWVNGRFTISKSSSTKMDLKMTSLTTEDTATYFCARGSSGYVGDIWGPGTLVTVSS VL: DPVLTQTASSVSAAVGGTVTINCQASQSVYGNNELSWFQQKPGQPPKLLIYYASTLASGVPSRFKGSGSGTQFTLTISDLECDDAAIYYCQGGYLGNRAFGGGTEVVVKG",no binding (tested: protein coated at 5μg/ml),no binding (tested: protein coated at 5μg/ml),no binding (tested: protein coated at 5μg/ml),no binding (tested: protein coated at 5μg/ml),no binding (tested: protein coated at 5μg/ml),no binding (tested: protein coated at 5μg/ml)
"BJRbL52 (antibody, V domains shown, also called 兔抗LAM单克隆抗体BJRbL52; LAM抗体) VH: QSVEESGGRLVTPGTSLTLTCTVSGFSLSSYDMGWVRQAPGKGLEWIGNIWSNGFTDYASWVNGRFTISKSSSTKMDLKMTSLTTEDTATYFCARGSSGYVGDIWGPGTLVTVSS VL: DPVLTQTASSVSAAVGGTVTINCQASQSVYGNNELSWYQQKSGQPPKLLIYKASTLASGVPSRFKASGSGTQFTLTISDLECDDAAIYYCQGGYWGNRAFGGGTEVVVKG",no binding (tested: protein coated at 5μg/ml),no binding (tested: protein coated at 5μg/ml),no binding (tested: protein coated at 5μg/ml),no binding (tested: protein coated at 5μg/ml),no binding (tested: protein coated at 5μg/ml),no binding (tested: protein coated at 5μg/ml)
